Source: the RNAGym collection of RNA variant scans (doi:10.7554/elife.90254)

B1: LINE1-full (parent)
chain: UACGUAGGUGGUUUUCCCCUGAUAGUGCUAAGGGGGCCUGGAAGUUUGGACUGGGCAGAGCUCAACACAGCGUGGCAAAGUGGCUGUGGCUAGACUGCCUCUCUGGAUUCCUCGUCACUCAGCAGGGCAUCUCUGAGAGAAAUGCC

Variants of: B1
Assay: self-cleavage, relative activity (ratio to wild type); higher = more cleavage; in vitro, sequencing; the parent is a self-cleaving ribozyme

Going from G40U to G40U A43G, the self-cleavage rises from 1 to 1.11.

Going from G40U A59C to G40U A59G, the self-cleavage falls from 0.82 to 0.05.

Compared with G40U A65G, G40U A67G is higher in self-cleavage: 0.04 for the first, 0.21 for the second.

Going from G40U A79G to G40U A117G, the self-cleavage falls from 1.09 to 0.97.

Compared with G40U G58A, G40U G139A is higher in self-cleavage: 0.02 for the first, 1.17 for the second.

First: G40U U47A
Second: G40U U52A
The self-cleavage of the first is higher: 1.86 for the first, 0.99 for the second.

First: G40U U85G
Second: G40U U100A
The self-cleavage of the first is lower: 0.28 for the first, 0.89 for the second.

First: G40U U100C
Second: G40U U108C
The self-cleavage of the first is lower: 0.46 for the first, 1.59 for the second.

Compared with G40U U130C, G40U U132A is lower in self-cleavage: 1.32 for the first, 1.31 for the second.

First: G40U U132C
Second: G40U U134C
The self-cleavage of the first is higher: 2.4 for the first, 1.6 for the second.

Going from G41A A43C to G41A A43G, the self-cleavage rises from 0.25 to 0.44.

Going from G41A A78G to G41A A78U, the self-cleavage rises from 0.58 to 2.63.

Compared with G41A A79G, G41A A79U is higher in self-cleavage: 1 for the first, 1.28 for the second.

Going from G41A A117G to G41A A138G, the self-cleavage falls from 1.53 to 1.25.

Going from G41A C68U to G41A C95U, the self-cleavage falls from 0.23 to 0.12.

Compared with G41A G60U, G41A U87C is higher in self-cleavage: 0.04 for the first, 0.26 for the second.

First: G41A U96C
Second: G41A U104C
The self-cleavage of the first is lower: 0.11 for the first, 1.53 for the second.

Going from G41A U108C to G41A U130A, the self-cleavage rises from 1.23 to 1.57.

First: G41A U134A
Second: G41A U134C
The self-cleavage of the first is lower: 0.89 for the first, 1.15 for the second.

Compared with G41A U134G, G41A U143C is lower in self-cleavage: 0.98 for the first, 0.95 for the second.

First: G41A U143G
Second: G41C A59G
The self-cleavage of the first is higher: 1.11 for the first, 0.19 for the second.

Going from G41C A138G to G41C U45C, the self-cleavage falls from 0.97 to 0.68.

Going from G41C U100C to G41C U104G, the self-cleavage falls from 2.63 to 1.58.

Compared with G41U A64G, G41U A65G is lower in self-cleavage: 0.16 for the first, 0.03 for the second.

Going from G41U A117U to G41U A129C, the self-cleavage falls from 1.24 to 1.02.

Going from G41U A129G to G41U C98U, the self-cleavage falls from 1.03 to 0.12.

Going from G41U G127A to G41U U73C, the self-cleavage rises from 0.69 to 2.76.

Going from G41U U100G to G41U U132A, the self-cleavage rises from 0.78 to 1.35.

Compared with G41U U134C, A42C A67G is lower in self-cleavage: 1.21 for the first, 0.52 for the second.

First: A42C A92G
Second: A42C A107U
The self-cleavage of the first is lower: 0.15 for the first, 1.04 for the second.

Compared with A42C A117G, A42C A142G is higher in self-cleavage: 0.77 for the first, 1.23 for the second.

Compared with A42C C95U, A42C C110A is higher in self-cleavage: 0.04 for the first, 1.68 for the second.

Going from A42C C145U to A42C G54A, the self-cleavage falls from 1.53 to 0.13.

Compared with A42C U73C, A42C U91C is lower in self-cleavage: 0.75 for the first, 0.4 for the second.

Compared with A42C U100C, A42C U102C is lower in self-cleavage: 1.25 for the first, 1.13 for the second.

Going from A42C U119C to A42C U134C, the self-cleavage rises from 0 to 1.31.

First: A42G A43U
Second: A42G A50G
The self-cleavage of the first is higher: 1.56 for the first, 0.91 for the second.

First: A42G A57G
Second: A42G A57U
The self-cleavage of the first is higher: 0.95 for the first, 0.14 for the second.

First: A42G A64U
Second: A42G A65C
The self-cleavage of the first is higher: 0.52 for the first, 0.07 for the second.

Going from A42G A65G to A42G A67G, the self-cleavage rises from 0.14 to 0.88.

First: A42G A69G
Second: A42G A77G
The self-cleavage of the first is lower: 0.54 for the first, 2.66 for the second.

A42G A77U showed a self-cleavage of 1.02.
